Assay [1] deals with subcutaneous, inguinal white adipocytes. Put plainly: Ucp1 / brown adipocyte marker mRNA (qPCR) in immortalized inguinal white adipocytes treated with FGFs. The format is cell-based, murine. As for the experimental part: Screening paracrine FGFs for a browning potential. A, B—Screening of all paracrine FGFs in immortalized white adipocytes. Subcutaneous, inguinal and visceral, epididymal white adipocytes were grown to confluence in Dulbecco's modified Eagle's medium with 4.5 g/l glucose, supplemented with 20 nmol/l insulin, 1 nmol/l triiodothyronine, 20% fetal bovine serum, and penicillin/streptomycin. Upon reaching confluence, differentiation was induced with 500 mmol/l isobutylmethylxanthine, 250 mmol/l indomethacine, and 2 mg/ml dexamethasone for 24 hours. Subsequently, members of the paracrine FGF protein family were added to the medium for the following six days. The medium and the FGF indicated were changed every 48 hours. Untreated cells served as a negative control. At the end of the differentiation process total RNA was isolated using TRIzol reagents, RNA quality and concentration was measured by photometric analysis, and 5 μg of total RNA was reverse-transcribed to cDNA. Finally, quantitative analysis of UCP-1 mRNA expression was performed. A bar graph analysis including the SEM of 3 to 6 independent experiments is shown. […] B—Four different splicing forms of the Fgf8 gene were compared by quantifying Ucp1 mRNA expression in fully differentiated white adipocytes. UCP-1 mRNA abundance is shown in percent of the FGF8b value. Fgf8b and Fgf8f were able to increase expression in epididymal adipocytes. C—Illustration depicting the different exon usage that characterizes the FGF8 spliceforms a, b, e, and f.
Dose dependency of Ffg8b action. A, B—Subcutaneous, inguinal and visceral, epididymal white adipocytes were grown to confluence in Dulbecco's modified Eagle's medium with 4.5 g/l glucose, supplemented with 20 nmol/l insulin, 1 nmol/l triiodothyronine, 20% fetal bovine serum, and penicillin/streptomycin. Upon reaching confluence, differentiation was induced with 500 mmol/l isobutylmethylxanthine, 250 mmol/l indomethacine, and 2 mg/ml dexamethasone for 24 hours. Subsequently, FGF8b in five indicated concentrations were added to the medium for the following six days. The medium and the FGF8b were changed every 48 hours. Untreated cells served as a negative control. At the end of the differentiation process total RNA was isolated using TRIzol reagents, RNA quality and concentration was measured by photometric analysis, and 5 μg of total RNA was reverse-transcribed to cDNA. Finally, quantitative analysis of UCP-1 mRNA expression was performed. FGF8b induces Ucp1 mRNA abundance in inguinal and epididymal adipocytes. Epididymal fat cells were more dose dependently responsive to Fgf8b treatment as compared to inguinal cells. The latter were responsive to FGF8b treatment above the threshold indicated. B—The absolute increase of several genes typical for brown fat cells.
Treatment timecourse experiment. A, B—Subcutaneous, inguinal and visceral, epididymal white adipocytes were grown to confluence (prolif. denotes proliferation period) in Dulbecco's modified Eagle's medium with 4.5 g/l glucose, supplemented with 20 nmol/l insulin, 1 nmol/l triiodothyronine, 20% fetal bovine serum, and penicillin/streptomycin. Upon reaching confluence, differentiation was induced with 500 mmol/l isobutylmethylxanthine, 250 mmol/l indomethacine, and 2 mg/ml dexamethasone for 24 hours (induction). Subsequently, the cells were cultured for another six days (differentiation). At the end of the differentiation process total RNA was isolated using TRIzol reagents, RNA quality and concentration was measured by photometric analysis, and 5 μg of total RNA was reverse-transcribed to cDNA. Finally, quantitative analysis of UCP-1 mRNA expression was performed. Untreated cells served as a negative control. A bar graph analysis including the SEM of 5 independent experiments is shown. A—Epididymal fat cells were treated with FGF8b during different time windows as given by black squares indicating one day of treatment each. […]

For assay [2], the system named is visceral, epididymal white adipocytes. Put plainly: Ucp1 / brown adipocyte marker mRNA (qPCR) in immortalized epididymal white adipocytes treated with FGFs. The format is cell-based, murine.
Setting [3] is: continuous treatment during differentiation, fully differentiated cells (FIG. 2B).
The mark [4] stands for this setting: epididymal cells treated 48 hours during proliferation prior to induction.
[5] abbreviates: epididymal cells treated 48 hours during proliferation prior to induction, sampled acute to d6 p.i.

B1: FGF8b: murine recombinant paracrine fibroblast growth factor 8, major spliceform b (R&D Systems); amino acid sequence identical to human, SEQ ID NO:16/20 (protein)
chain: MGSPRSALSCLLLHLLVLCLQAQVTVQSSPNFTQHVREQSLVTDQLSRRLIRTYQLYSRTSGKHVQVLANKRINAMAEDGDPFAKLIVETDTFGSRVRVRGAETGLYICMNKKGKLIAKSNGKGKDCVFTEIVLENNYTALQNAKYEGWYMAFTRKGRPRKGSKTRQHQREVHFMKRLPRGHHTTEQSLRFEFLNYPPFTRSLRGSQRTWAPEPR
modifications: human FGF8b
Consider B1, for which, in assay [1] (fully differentiated inguinal cell line, treatment after induction for entire differentiation period of 6 days, screening concentration 25.0 ng/ml, untreated cells as control), the “Ucp1 mRNA abundance, induction” value is 2.1 fold. The “Induction of Ucp1 mRNA expression (browning potential), screening of paracrine FGFs and FGF8 spliceforms” value in assay [1] (inguinal adipocytes, six days of differentiation, FGF8a, b, e, f 25.0 ng/ml, FGF17 10.0 ng/ml) is reported as “only isoform with browning potential”. Also, the “Cidea mRNA abundance” value in assay [1] (inguinal adipocytes, treatment during differentiation, smaller effect size than in epididymal) is on record as “increased”. The “Ucp1 mRNA abundance, dose dependency” value in assay [1] (inguinal cells, different concentrations during entire differentiation phase of 6 days) was “only the highest dose increased Ucp1 expression”. In addition, the “Most effective concentration for Ucp1 induction” value in assay [1] (inguinal cells, highest concentration tested, 6 days of differentiation) stood at 125 ng/mL. Further, in assay [1] (inguinal cells, treatment during different days of proliferation, induction and/or differentiation), the “Final Ucp1 mRNA abundance after full differentiation (responsiveness)” value is reported as “only responsive to FGF8b treatment in their fully differentiated state”. In assay [2] (setting [3]), the “Cox7a1 mRNA” value is on record as “not or only slightly increased” and the “Elovl3 mRNA” value is “not or only slightly increased”. Also, the “Cidea mRNA abundance” value in assay [2] (epididymal adipocytes, treatment during differentiation, greater effect size than in inguinal) is reported as “increased”. In assay [2] (setting [4]), the “Cox7a1 mRNA abundance in mature adipocytes” value is on record as “increased”; the “Foxc2 mRNA abundance, acute response” value is “do not acutely respond”; the “Prdm16 mRNA abundance, timecourse” value is “transient increase in abundance directly following induction”; the “pRb mRNA abundance, acute response” value was “do not acutely respond”. Besides, in assay [2] (setting [5]), the “Cidea mRNA abundance, timecourse” value was “already increasing on day 4 p.i” and the “Elovl3 mRNA abundance, timecourse” value was “already increasing on day 4 p.i”. Besides, the “Ucp1 mRNA abundance, timecourse” value in assay [2] (epididymal cells treated 48 hours during proliferation prior to induction, sampled acute, d1, d2, d4, d6 p.i., normalized to untreated) is “increased 6 days after induction for the first time”. The “Pgc1a mRNA abundance after complete differentiation” value in assay [2] (epididymal cells treated 48 hours during proliferation, day 6 p.i.) is “increased Pgc1a mRNA abundance”. In addition, in assay [2] (epididymal cells treated 48 hours during proliferation, sample immediately after treatment), the “Pgc1a mRNA abundance, acute” value was “acutely downregulated”. The “Final Ucp1 mRNA abundance after full differentiation (responsiveness)” value in assay [2] (epididymal cells, comparably late treatment (fully differentiated state)) is given as “respond”. Besides, the “Final Ucp1 mRNA abundance after full differentiation” value in assay [2] (epididymal cells, treatment during the entire differentiation period) is listed as “strongest Ucp1 induction”.

Values taken from US10532083B2, “Methods for inducing differentiation or conversion of white adipocytes and/or preadipocytes to brown adipocites using FGF8” (Technische Universität München, priority 2014, dated 2020).
